Source: PMC5788916, “The SAM domain of mouse SAMHD1 is critical for its activation and regulation” (Nature Communications, 2018)
Several values for one entry are separate records, joined by “and”; a condition that tells them apart may be missing. Equal values may be shown once.

Key:
[1] = molecular target: full-length mouse SAMHD1 (mSAMHD1), wild type (mouse) (UniProt Q60710); assay: SEC; Superdex 200 10/300 GL; 2 mg/ml, 200 ul; 50 mM Tris-HCl pH 8.0, 150 mM NaCl, 5 mM MgCl2, 0.5 mM TCEP; no nucleotides added
[2] = molecular target: full-length mouse SAMHD1 (mSAMHD1), wild type (mouse) (UniProt Q60710); assay: SEC; Superdex 200 10/300 GL; 2 mg/ml, 200 ul; 50 mM Tris-HCl pH 8.0, 150 mM NaCl, 5 mM MgCl2, 0.5 mM TCEP; after addition of dGTP-α-S (methods: nucleotide 4 mM final); read-out: assembly of monomers or dimers into tetramers
[3] = molecular target: full-length mouse SAMHD1 (mSAMHD1), wild type (mouse) (UniProt Q60710); assay: as above; remark: listed apart in the source
[4] = molecular target: full-length mouse SAMHD1 (mSAMHD1), wild type (mouse) (UniProt Q60710); assay: crystal structure; 1-Allo: co-crystallised with 4 mM dGTP-α-S; space group P2(1)2(1)2, 2 copies in the asymmetric unit; 3.4 Å
[5] = molecular target: full-length mouse SAMHD1 (mSAMHD1), wild type (mouse) (UniProt Q60710); assay: crystal structure; No-Allo (0-Allo): crystallised without nucleotides; space group C2, 4 copies in the asymmetric unit; 3.5 Å
[6] = molecular target: full-length mouse SAMHD1 (mSAMHD1), wild type (mouse) (UniProt Q60710); assay: AUC; sedimentation velocity, 0.8-1.3 mg/mL, 20 °C, 50 mM Tris-HCl pH 8.0, 150 mM NaCl, 5 mM MgCl2, 0.5 mM TCEP; protein alone, no nucleotides added
[7] = molecular target: full-length mouse SAMHD1 (mSAMHD1), wild type (mouse) (UniProt Q60710); assay: AUC; sedimentation velocity, 0.8-1.3 mg/mL, 20 °C, 50 mM Tris-HCl pH 8.0, 150 mM NaCl, 5 mM MgCl2, 0.5 mM TCEP; with 150 uM nucleotides (dGTP-α-S)
[8] = molecular target: full-length mouse SAMHD1 (mSAMHD1), wild type (mouse) (UniProt Q60710); assay: not stated; up to 24 h of assembly with dGTP-α-S (Supplementary Fig. 1a)
[9] = molecular target: full-length mouse SAMHD1 (mSAMHD1), wild type (mouse) (UniProt Q60710); assay: AUC; sedimentation velocity, 0.8-1.3 mg/mL, 20 °C, 50 mM Tris-HCl pH 8.0, 150 mM NaCl, 5 mM MgCl2, 0.5 mM TCEP; with 150 uM nucleotides (dGTP-α-S); remark: listed apart in the source
[10] = molecular target: mouse SAMHD1 HD domain, isoform 2 (residues 145-651) (mouse); assay: SEC; Superdex 200 10/300 GL; 2 mg/ml, 200 ul; 50 mM Tris-HCl pH 8.0, 150 mM NaCl, 5 mM MgCl2, 0.5 mM TCEP; after addition of dGTP-α-S (methods: nucleotide 4 mM final); read-out: assembly of monomers or dimers into tetramers
[11] = molecular target: mouse SAMHD1 HD domain, isoform 2 (residues 145-651) (mouse); assay: AUC; sedimentation velocity, 0.8-1.3 mg/mL, 20 °C, 50 mM Tris-HCl pH 8.0, 150 mM NaCl, 5 mM MgCl2, 0.5 mM TCEP; protein alone, no nucleotides added
[12] = molecular target: mouse SAMHD1 HD domain, isoform 2 (residues 145-651) (mouse); assay: AUC; sedimentation velocity, 0.8-1.3 mg/mL, 20 °C, 50 mM Tris-HCl pH 8.0, 150 mM NaCl, 5 mM MgCl2, 0.5 mM TCEP; with 150 uM nucleotides (dGTP-α-S)
[13] = molecular target: mouse SAMHD1 HD domain, isoform 2 (residues 145-651) (mouse); assay: as above; remark: listed apart in the source
[14] = molecular target: the molecule itself; assay: SEC; Superdex 200 10/300 GL; 2 mg/ml, 200 ul; 50 mM Tris-HCl pH 8.0, 150 mM NaCl, 5 mM MgCl2, 0.5 mM TCEP; after addition of dGTP-α-S (methods: nucleotide 4 mM final); read-out: assembly of monomers or dimers into tetramers
[15] = molecular target: the molecule itself; assay: AUC; sedimentation velocity, 0.8-1.3 mg/mL, 20 °C, 50 mM Tris-HCl pH 8.0, 150 mM NaCl, 5 mM MgCl2, 0.5 mM TCEP; protein alone, no nucleotides added

Question: What does the source list for “full-length mouse SAMHD1 (mSAMHD1), wild type (from UniProt Q60710 1-658) (enzyme)”?
Answer: stoichiometry N [1]: 2 and 4; stoichiometry N [2]: 4; stoichiometry N [3]: 2; stoichiometry N [4]: 4; stoichiometry N [5]: 4; stoichiometry N [6]: 2 and 4; stoichiometry N [7]: 2; stoichiometry N [8]: 4; stoichiometry N [9]: 4

Question: “mouse SAMHD1 HD domain, isoform 2 (residues 145-651) (domain or fragment)” was tested. Which stoichiometry N [10] did it give?
Answer: Its stoichiometry N is 4.

Question: And the stoichiometry N [11]?
Answer: Its stoichiometry N is 2.

Question: And the stoichiometry N [12]?
Answer: Its stoichiometry N is 2.

Question: And the stoichiometry N [13]?
Answer: Its stoichiometry N is 4.

B1: human SAMHD1 L77F/C80F/H111R triple mutant (FFR) (enzyme, UniProt Q9Y3Z3 1-626, looked up)
chain: MQRADSEQPSKRPRCDDSPRTPSNTPSAEADWSPGLELHPDYKTWGPEQVCSFLRRGGFEEPVLLKNIRENEITGAFLPFLDESRFENLGVSSLGERKKLLSYIQRLVQIRVDTMKVINDPIHGHIELHPLLVRIIDTPQFQRLRYIKQLGGGYYVFPGASHNRFEHSLGVGYLAGCLVHALGEKQPELQISERDVLCVQIAGLCHDLGHGPFSHMFDGRFIPLARPEVKWTHEQGSVMMFEHLINSNGIKPVMEQYGLIPEEDICFIKEQIVGPLESPVEDSLWPYKGRPENKSFLYEIVSNKRNGIDVDKWDYFARDCHHLGIQNNFDYKRFIKFARVCEVDNELRICARDKEVGNLYDMFHTRNSLHRRAYQHKVGNIIDTMITDAFLKADDYIEITGAGGKKYRISTAIDDMEAYTKLTDNIFLEILYSTDPKLKDAREILKQIEYRNLFKYVGETQPTGQIKIKREDYESLPKEVASAKPKVLLDVKLKAEDFIVDVINMDYGMQEKNPIDHVSFYCKTAPNRAIRITKNQVSQLLPEKFAEQLIRVYCKKVDRKSLYAARQYFVQWCADRNFTKPQDGDVIAPLITPQKKEWNDSTSVQNPTRLREASKSRVQLFKDDPM
notes: human SAMHD1 with three SAM domain residues changed to their mouse counterparts; compared with full-length WT hSAMHD1; also called FFR mutant; source: purified
Question: For B1, which “stoichiometry N” value [14] is on record?
Answer: The value was 4.

B2: mouse SAMHD1 HD domain, isoform 1 (residues 145-658) (domain or fragment, UniProt Q60710 145-658, looked up)
chain: DLMKVFNDPIHGHIEFHPLLIRIIDTPQFQRLRYIKQLGGGYYVFPGASHNRFEHSLGVGYLAGCLVRALAEKQPELQISERDILCVQIAGLCHDLGHGPFSHMFDGRFIPRARPEKKWKHEQGSIEMFEHLVNSNELKLVMKNYGLVPEEDITFIKEQIMGPPITPVKDSLWPYKGRPATKSFLYEIVSNKRNGIDVDKWDYFARDCHHLGIQNNFDYKRFIKFARICEVEYKVKEDKTYIRKVKHICSREKEVGNLYDMFHTRNCLHRRAYQHKISNLIDIMITDAFLKADPYVEITGTAGKKFRISTAIDDMEAFTKLTDNIFLEVLHSTDPQLSEAQSILRNIECRNLYKYLGETQPKREKIRKEEYERLPQEVAKAKPEKAPDVELKAEDFIVDVINVDYGMEDKNPIDRVHFYCKSNSKQAVRINKEQVSQLLPEKFAEQLIRVYCKKKDGKSLDAAGKHFVQWCALRDFTKPQDGDIIAPLITPLKWNNKTSSCLQEVSKVKTCLKF
notes: mouse SAMHD1 isoform 1, HD domain without the SAM domain, residues 145-658; The text speaks of 'mHD' and gives limits for both isoforms; source: E. coli BL21 (DE3), purified (Ni-NTA, size-exclusion chromatography)
Question: How did the “stoichiometry N” value [14] turn out when B2 was run?
Answer: Its value is 4.

Question: And the “stoichiometry N” value [15]?
Answer: Its value is 2.
